“And” between values parts separate entries of the source, which are not always exact repeats. Equal entries are not always repeated. Where two headings read alike, the source gives them in different places. Positions of bridges follow the written chain, without caps; N, C: chain ends. No end group written: not given here. *: point of attachment. kbt‑6‑CONH‑4‑piperidine = ketobenzothiazole-6-CONH-4-piperidine (Kbt-4-piperidinylamide), O=C(NC1CCNCC1)c1ccc2nc(*)sc2c1; kbt‑6‑CONH‑Bn = ketobenzothiazole-6-CONH-benzyl (Kbt-benzylamide), O=C(NCc1ccccc1)c1ccc2nc(*)sc2c1; kbt‑6‑COOH = ketobenzothiazole-6-COOH, O=C(O)c1ccc2nc(*)sc2c1; kbt = C-terminal ketobenzothiazole, c1ccc2sc(*)nc2c1; Kbt = ketobenzothiazole, c1ccc2sc(*)nc2c1; kt = C-terminal ketothiazole, c1csc(*)n1
What was measured:
[1] = molecular target: T1, matriptase (Charles Craik, UCSF), recombinant (Homo sapiens (Human), UniProt Q9Y5Y6); experiment: fluorogenic inhibition assay
T1 sequence: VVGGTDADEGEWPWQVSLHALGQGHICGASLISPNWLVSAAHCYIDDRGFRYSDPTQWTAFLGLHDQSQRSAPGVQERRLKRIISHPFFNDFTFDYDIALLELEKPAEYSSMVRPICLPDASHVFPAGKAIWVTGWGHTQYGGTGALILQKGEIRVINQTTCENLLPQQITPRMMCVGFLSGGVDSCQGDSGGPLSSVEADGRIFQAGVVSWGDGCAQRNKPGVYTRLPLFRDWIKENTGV
Experimental: (§1) Inhibitors (11-pt serial dilutions, 0-20 μM final concentration in reaction) were serially diluted in DMSO (2% DMSO final concentration) and then mixed with either recombinant serine protease domain of HGFA [Z. Han, P. K. Harris, D. E. Jones, R. Chugani, T. Kim, M. Agarwal, W. Shen, S. A. Wildman, J. W. Janetka, Acs Med Chem Lett 2014, 5, 1219-1224], matriptase (Charles Craik, UCSF) or hepsin* (#4776-SE-010, R&D Systems, Minneapolis, Minn.) in black 384 well plates (Corning #3575. Corning, N.Y.). […] The final substrate concentrations for all assays were at the Kₘ for the respective enzymes. Changes in fluorescence (excitation at 380 nm and emission at 460 nm) were measured at room temperature over time in a Biotek Synergy 2 plate reader (Winnoski, Vt.). Using GraphPad Prism version 6.04 software program, (GraphPad Software, San Diego, Calif., www.graphpad.com), a four parameter curve fit was used to determine the inhibitor IC₅₀s from a plot of the mean reaction velocity versus the inhibitor concentration. The IC₅₀ values represent the average of three separate experimental determinations.
(§2) Fluorescent inhibitor and chromogenic proteolytic assays were performed in general accordance with the procedures described in Example 4 for compounds prepared in Examples 5 and 6.

[2] = molecular target: T2, Recombinant human hepsin (4776-SE-010, R&D Systems), activated (human, UniProt P05981); experiment: fluorogenic inhibition assay
Experimental: as §1, §2

[3] = molecular target: Factor Xa; experiment: selectivity inhibition assay
[4] = molecular target: Trypsin; experiment: selectivity inhibition assay
[5] = molecular target: recombinant thrombin; experiment: selectivity inhibition assay
[6] = molecular target: Hepatocyte Growth Factor Activator (HGFA) serine protease domain, N-terminal His-tag, recombinant (Homo sapiens (Human)) (UniProt Q04756); experiment: fluorogenic inhibition assay
[7] = molecular target: Hepatocyte Growth Factor Activator (HGFA) serine protease domain, N-terminal His-tag, recombinant (Homo sapiens (Human)) (UniProt Q04756)
[8] = molecular target: T1, matriptase (Charles Craik, UCSF), …; experiment: fluorogenic inhibition assay; remark: listed apart in the source
Experimental: as §1

[9] = molecular target: T2, Recombinant human hepsin (4776-SE-010, …); experiment: fluorogenic inhibition assay; remark: listed apart in the source
Experimental: as §1

| Binder | Ki [1] [nM] | Ki [2] [nM] | Ki [3] [nM] | Ki [4] [nM] | Ki [5] [nM] | Ki [6] [nM] | IC50 of enzyme inhibition [7] | Ki [8] | Ki [9] |
| --- | --- | --- | --- | --- | --- | --- | --- | --- | --- |
| Ac-KRLR-Kbt (not fully specified) [Ac-KRLR(SEQ ID NO: 8)-Kbt-5-COOH] | 5.14 | 0.37 | 20.2 | 1.06 | 1940 | 6.07 |  |  |  |
| Ac-SQLR-kt (SMILES CC(=O)N[C@@H](CO)C(=O)N[C@@H](CCC(N)=O)C(=O)N[C@@H](CC(C)C)C(=O)N[C@@H](CCCNC(=N)N)C(=O)c1nccs1) [Ac-SQLR(SEQ ID NO: 7)-kt] |  |  |  |  |  | 182 | 180 nM | 9.2 nM | 0.34 nM |
| H-Arg-Leu-Arg-{kbt-Val-NH2} [H-RLR-kbt-Val-NH2] | 4.2 | 0.44 | 18 | 0.31 | 548 | 12.5 |  |  |  |
| Ac-SKLR-{kbt‑6‑CONH‑4‑piperidine} [Ac-SKLR(SEQ ID NO: 10)-Kbt-4-piperidinylamide] | 1.28 | 0.2 | 447 | 0.41 | 2950 | 7.7 |  |  |  |
| Ac-SKLR-{kbt‑6‑COOH} (SMILES CC(=O)N[C@@H](CO)C(=O)N[C@@H](CCCCN)C(=O)N[C@@H](CC(C)C)C(=O)N[C@@H](CCCNC(=N)N)C(=O)c1nc2ccc(C(=O)O)cc2s1) [Ac-SKLR(SEQ ID NO: 10)-Kbt-COOH] | 54.8 | 0.173 | 1250 | 0.03 | > 2000 | 132 |  |  |  |
| Ac-SKLR-{kbt‑6‑CONH‑Bn} [Ac-SKLR(SEQ ID NO: 10)-Kbt-benzylamide] | 0.36 | 0.8 | 190 | 0.05 | 2470 | 9.1 |  |  |  |
| Ac-SKLR (not fully specified (C-terminus)) [Ac-SKLR(SEQ ID NO: 10)-Kbt-Trp-NH2] | 3.74 | 0.098 | 163 | 0.02 | 1230 | 15.8 |  |  |  |
| H-Trp-Leu-Arg-{kbt-Val-NH2} [H-WLR-kbt-Val-NH2] | 49.2 | 1.31 | 159 | 0.01 | 41 | 73.9 |  |  |  |
| Ac-NKLR-kt (SMILES CC(=O)N[C@@H](CC(N)=O)C(=O)N[C@@H](CCCCN)C(=O)N[C@@H](CC(C)C)C(=O)N[C@@H](CCCNC(=N)N)C(=O)c1nccs1) [Ac-NKLR(SEQ ID NO: 14)-kt] |  |  |  |  |  | 79 | 397 nM and 400 nM | 12 nM and 12.4 nM | 1.4 nM and 1.41 nM |
| Ac-SKLR-kbt (SMILES CC(=O)N[C@@H](CO)C(=O)N[C@@H](CCCCN)C(=O)N[C@@H](CC(C)C)C(=O)N[C@@H](CCCNC(=N)N)C(=O)c1nc2ccccc2s1) [Ac-SKLR(SEQ ID NO: 10)-Kbt] | 3.05 | 0.16 | 1900 | 0.16 | > 20000 | 33 |  |  |  |
| H-KQDRR-kt (lactam 1-3; also: 3:1 D/L diastereomers at the alpha keto carbon) [H-cyclo(KQD)RR-kt] |  |  |  |  |  | 5940 |  | 0.71 nM |  |
| H-WRLR-kbt (SMILES CC(C)C[C@H](NC(=O)[C@H](CCCNC(=N)N)NC(=O)[C@@H](N)Cc1c[nH]c2ccccc12)C(=O)N[C@@H](CCCNC(=N)N)C(=O)c1nc2ccccc2s1) [H-WRLR(SEQ ID NO: 9)-Kbt] | 3.79 | 0.12 | 2.4 | 0.96 | 4890 | 8.75 |  |  |  |

From patent publication US20180066015A1, “INHIBITORS OF GROWTH FACTOR ACTIVATION ENZYMES” (Washington University, published 2018)
